Measurements reported in patent US9744212B2, “Galectin-3C combination therapy for human cancer” (Texas Tech University System, priority 2011, dated 2017).

Key:
VEGF = assay: ELISA of VEGF in U266 cell-conditioned medium; assay type: cell-based, human; conditions: 48-hour culture with 10 μg/mL Gal-3C, 5 nM Bor or both
Description: ELISA of VEGF and bFGF Levels. The levels of VEGF and bFGF were measured by direct ELISA as follows. Flat-bottom 96-well polycarbonate plates were coated at 4° C. with 50 μL/well cell culture supernatants diluted 1:25 in carbonate coating buffer (0.1 M NaHCO3, […]) at 4° C. overnight. Standard curves were obtained with purified recombinant human VEGF and bFGF (both from R&D Systems) serially diluted in coating buffer (10-fold serial dilutions from 1,000 to 0 ng/mL). After removing diluted supernatants or standards, and blocking with PBS supplemented with 1% W/V BSA for 1 hour at room temperature, plates were incubated for 1 hour at room temperature with mouse anti-human VEGF or rabbit anti-human bFGF primary antibodies (2 μg/mL in PBS, 50 μL/well Abeam, Mass., USA). Then, plates were washed twice with PBS with 0.025% V/V Tween-20 (300 μL/well) and incubated at room temperature with anti-mouse or anti-rabbit HRP-labeled secondary antibodies (0.2 μg/mL in PBS, 50 μL/well Abeam, Mass., USA) for 1 hour. The plates were washed thrice with PBS containing 0.025% V/V Tween-20 (300 μL/well), the TMB colorimetric substrate (Thermo Fisher Scientific, Waltham, Mass., USA) was added, and after 5 minutes the absorbance was measured (0.1 s) at 450 nm on a Victor 2 multimodal microplate reader (PerkinElmer, Billerica, Mass., USA). All samples were run in triplicates. […]

[1] = test system: MM cell lines (ARP-1, ARK-B, U266, 8226/Dox, MM-1S, MM-RL, NCI-H929, RMPI-8266); assay: Cell proliferation (viability) assays of MM cell lines; assay type: cell-based, human; conditions: all eight cell lines, at one or more concentrations (0.5, 1, 2 or 4 μg/ml); 48 hours; P<0.05; magnitude slight
Description: EXAMPLE 3 illustrates Gal-3C inhibits proliferation of MM cells. Cell Proliferation (Viability) Assays. Cell proliferation was assessed with a ViaLight Plus Cell Proliferation and Cytotoxicity BioAssay Kit (Lonza, Walkersville, Md., USA) according to the directions of the manufacturer. In brief, myeloma cells were seeded (8,000 per well) in 50 μL of RPMI-1640 with 10% heat-inactivated FBS (growth medium) in 96-well plates. HUVEC cells were seeded (10,000/well) in 50 μl EGM-2 medium in 96-well plates. Gal-3C (2× concentration) in 50 μL of growth medium was added to triplicate wells and the plate kept at the CO2 incubator at 37° C. for 48 hour. For the ViaLight assay, 50 μL of lysis buffer was added to each well, the plate was incubated for 10 minutes, after which 50 μL of cell lysate from each well was transferred to a solid white Lumitrac-200 plate and 50 μL of reconstituted AMR Plus was added. Luminescence was measured with a 1-s integrated setting in a Berthold luminometer after 2 minutes. […] Fluorescence intensity was measured at 590-nm on a Polarstar Galaxy (BMG Labtech, Cary, N.C.) microplate reader. The blank (growth media with 10 μl Alamar Blue) was subtracted from the raw fluorescence to obtain adjusted fluorescence readings. Triplicate data points were analyzed and the data shown are representative of 3 or more studies. […]

AKT/IKK pathway = assay: Western blot of proteins in the NF-κB AKT/IKK pathway; assay type: cell-based; conditions: U266 and primary human MM cells; Gal-3C 10 μg/ml
Source text: EXAMPLE 4 indicates Gal-3C impairs NF-kB activation induced by Bonin U266 cells. Recently, it has been shown that the mechanism of action of Boris more complex than originally thought and can be differ depending on the cell type. […] This effect potentially reduces the therapeutic effect of Bonin MM, because NF-kB activation in plasma cells is associated with anti-apoptotic pathways (91). […] Comparison of NFkB expression by Western blot. […] Equal amounts of lysates of human primary MM and U266 cells and media were fractionated by SDS-PAGE and transferred to nitrocellulose membranes. Primary antibodies were visualized with HRP-coupled goat anti-rabbit or anti-mouse IgGs using an ATK/IKK kit (Cell Signaling Technology, Danvers, Mass.).
Upon IKK-mediated phosphorylation, IKBα dissociates from the NF-kB complex (p50 and p65 proteins). Free NF-kB is then phosphorylated on serine 529 of the p65 subunit and enters the nucleus where it regulates gene transcription.

[2] = test system: U266 MM subcutaneous tumors; assay: U266 subcutaneous tumor model of MM in NOD/SCID mice; assay type: in vivo, mouse; conditions: for mean difference of tumor volume between Gal-3C and Bor: Gal-3C lower than Bor, P<0.001
Description: Testing Gal-3C and Bonin NOD/SCID mouse model of MM: Prior to injection, U266 cells were washed once in Dulbecco's PBS (Sigma-Aldrich), counted, and adjusted to the appropriate density with additional PBS prior to inoculation. PBS containing a suspension of 1×10^7 U266 cells was injected subcutaneously into the abdomen of naive NOD/SCID mice. The primary tumors were measured with a pair of calipers once a week. Tumor volume was calculated by the formula width 2×length×0.5, where width was the smallest dimension. The mice were randomly divided into four groups with five mice in each group after 14 days. Control group #1 was subcutaneously implanted in the abdomen with a PBS-only containing 200-μl mini-osmotic pump. Group #2 received a dose of Gal-3C (30 μg/d/mouse) subcutaneously over a 16-day period for a total of 500 μg via a 200-μl mini-osmotic pump implanted abdominally. Group #3 was treated with six doses of 15 μg Bonin 50-μl injections via the tail vein on days 1-2, 8-9, and 15-16 for a total of 90 μg. Group #4 received Gal-3C via mini-pump for a total dose of 500 μg Gal-3C (30 μg/d/mouse) plus a total 90 μg Bor in 21 days. Anesthetized animals were euthanized and a post-mortem examination was conducted on the whole animals and dissected organs after 35 days.

[3] = test system: GFP-expressing HUVECs in U266 tumors; assay: Pilot study of in vivo angiogenesis inhibition (GFP-HUVEC plus U266 in Matrigel, nude mice); parameters: species or system mouse
Description: Pilot study of in vivo angiogenesis inhibition by Gal-3C. To determine the ability of Gal-3C to inhibit angiogenesis in vivo, 106 HUVECs infected with GFP-expressing rAAV vectors and 107 U266 MM cells were mixed together and suspended in 300 μL Matrigel. The cell mixture was injected subcutaneously into 6 nude mice and allowed to grow for two weeks. Three days after tumor administration, the mice were divided into two groups and one group was implanted with osmotic mini-pumps and treated with Gal-3C as in the study describe above. After 2 weeks, mice were sacrificed, pictures were taken, and the GFP-expressing cells in tumor masses were analyzed by flow cytometry.
The ability of Gal-3C to inhibit angiogenesis in vivo was determined in a pilot study. Six mice were injected with […] HUVECs and 107 U266 MM cells suspended in Matrigel and divided into two groups after two weeks. One group of 3 mice was implanted with osmotic mini-pumps and treated with Gal-3C as described above.

B1: Gal-3C: N-terminally truncated human galectin-3 consisting of 143 carboxy-terminal amino acid residues, SEQ ID NO: 1 (protein)
chain: GAPAGPLIVPYNLPLPGGVVPRMLITILGTVKPNANRIALDFQRGNDVAFHFNPRFNENNRRVIVCNTKLDNNWGREERQSVFPFESGKPFKIQVLVEPDHFKVAVNDAHLLQYNHRVKKLNEISKLGISGDIDITSASYTMI
With B1 the “VEGF levels in U266 conditioned medium” value (VEGF) was “significantly reduced”, the “proliferation of MM cells” value [1] was “significantly inhibited” and the “P-p65, P-Akt, P-IKKβ and P-IKKα (activation of the AKT/IKK pathway)” value (AKT/IKK pathway) was “inhibited”. The “mean difference of tumor volume between Gal-3C and Bor” value ([2]; day 21) was 4.431±1.494 mm^3, the “average tumor volume relative to that of the untreated controls” value ([2]; day 35, Gal-3C 30 μg/d/mouse by mini-osmotic pump, Bor six doses of 15 μg via tail vein) was 13.5% and the “mean difference of tumor volume between Gal-3C and Bor” value ([2]; day 35) was 31.54±4.379 mm3. For the same molecule, the “mean fluorescence intensity (MFI) of cells from tumor masses” value ([3]; GFP-expressing HUVEC, FACS, controls 19.24) was 9.4 MFI, the “reduction of the number of endothelial cells in the tumors” value ([3]; compared to control mice) was 48% and the “GFP-expressing HUVECs as share of the cells in tumor masses” value ([3]; controls 89.3%) was 46.2%. For the same molecule, the “subcutaneous vascularization near tumors” value ([3]; image analyses of nude mice) was “markedly reduced” and the “tumor size (white circles, representative mouse)” value ([3]; nude mice, control 7 mm) was 3 mm.
